{"source": "patent US5625031A", "about": "“Peptide inhibitors of the p33^cdk2 and p34^cdc2 cell cycle regulatory kinases and human papillomavirus E7 oncoprotein” (Bristol-Myers Squibb Company, priority 1994, dated 1997)", "key": {"E7-Rb complex": {"molecular_target": "T1, E7-Rb complex (Human papillomavirus type 18, UniProt P06788)", "T1 construct": "made in house; host or cells: bacteria (MBP-E7); baculovirus system (Rb)", "T1 sequence (P06788 whole entry, one chain of several)": "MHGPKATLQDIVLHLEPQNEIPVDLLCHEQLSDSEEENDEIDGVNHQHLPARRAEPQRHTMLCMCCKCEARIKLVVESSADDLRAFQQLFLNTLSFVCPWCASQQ", "test": "ELISA assay of competition for E7-Rb complex formation", "type": "binding", "conditions": "MBP-E7 coated plate, 100 ng Rb, increasing peptide concentrations", "description": "To examine the effect of p107 peptide binding upon the E7-Rb interaction, an ELISA assay was used to monitor E7-Rb complex formation. 96-well cluster plates were coated with either MBP-E7 protein (O) or MBP alone as a control (.circle-solid.). The plates were incubated with increasing concentrations of baculovirus expressed Rb which was detected with monoclonal antibody αRb349 (Pharmingen, San Diego Calif.) (FIG. 4A). In a separate experiment, 96-well cluster plates were coated with MBP-E7 protein and incubated with 100 ng Rb in the presence of increasing concentrations of p107 9mer peptide (FIG. 4B). Binding is quantitated as an increase in optical density at 405 nm. […] A corresponding peptide from Rb protein (sequence MCSMYGICK [SEQ ID NO: 2]) also binds to the E7 oncoprotein and competes for the E7-Rb interaction."}, "HPV18-E7 protein": {"molecular_target": "T2, HPV18-E7 protein (Human papillomavirus type 18, UniProt P06788)", "T2 construct": "made in house", "T2 sequence (P06788 whole entry, the tested form may be a part)": "as the sequence (P06788 whole entry, one chain of several) above", "test": "biochemical", "type": "binding", "conditions": "E7 type and method not stated", "description": "The association of bacterially expressed HPV18-E7 protein with the p107 30mer peptide was analyzed using an ELISA assay. In the experiment depicted in FIG. 3A, a 96-well cluster plate was coated with p107 30mer peptide and incubated with increasing concentration of a MBP-E7 fusion protein or the MBP protein as a control. […] In the experiment depicted in FIG. 3B, MBP-E7 fusion protein (100 ng) was incubated with a p107 30mer peptide-coated plate in the presence of increasing concentrations of free p107 9mer peptide."}}, "note": "“Also recorded” adds a separate entry of the source.", "data": [{"sequence": "MCSMYGICK [nine amino acid peptide derived from Rb]", "values": [{"measurement": "competition for E7 association with Rb", "setting": "E7-Rb complex", "value": "competes; also recorded: inhibits E7 binding to Rb"}, {"measurement": "binding to the E7 oncoprotein", "setting": "HPV18-E7 protein", "value": "binds"}]}]}
